T1: natural Bet v 1 (Indoor, Cat #NA-BV1-1) (Betula verrucosa (European white birch, …, UniProt P15494 2-160))
T1 construct: Bought natural protein purified from birch pollen; also called nBet v 1
T1 sequence: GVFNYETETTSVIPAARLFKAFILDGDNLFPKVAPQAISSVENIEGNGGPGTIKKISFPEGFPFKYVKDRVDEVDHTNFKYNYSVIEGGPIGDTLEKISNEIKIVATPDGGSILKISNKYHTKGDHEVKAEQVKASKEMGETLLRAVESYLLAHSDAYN

T2: Alder (Aln g 1, MyBiosource, Cat #MBS1041484) (Alder, UniProt P38948 2-160, limits assumed)
T2 construct: Bought reagent
T2 sequence (looked up): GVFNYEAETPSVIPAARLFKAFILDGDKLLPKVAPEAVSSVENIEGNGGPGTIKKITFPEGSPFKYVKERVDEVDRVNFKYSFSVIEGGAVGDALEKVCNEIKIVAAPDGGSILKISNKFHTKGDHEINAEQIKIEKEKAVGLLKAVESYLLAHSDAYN

T3: Apple (Mal d 1, MyBiosource, Cat #MBS1224919) (Apple, UniProt P43211 2-159, limits assumed)
T3 construct: Bought reagent
T3 sequence (looked up): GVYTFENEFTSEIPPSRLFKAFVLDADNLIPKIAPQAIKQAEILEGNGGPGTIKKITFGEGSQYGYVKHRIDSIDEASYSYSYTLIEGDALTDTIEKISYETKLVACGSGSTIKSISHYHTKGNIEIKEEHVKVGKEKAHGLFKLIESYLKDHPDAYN

T4: Celery (Api g 1, MyBiosource, Cat #MBS1171376) (Celery, UniProt P49372 1-154, limits assumed)
T4 construct: Bought reagent
T4 sequence (looked up): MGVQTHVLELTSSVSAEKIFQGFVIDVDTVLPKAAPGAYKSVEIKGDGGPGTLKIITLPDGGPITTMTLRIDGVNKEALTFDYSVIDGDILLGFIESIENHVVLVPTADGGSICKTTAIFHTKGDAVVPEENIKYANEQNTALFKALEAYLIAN

T5: European Hornbeam (Car b 1 isoform 1A & 1B, MyBiosource, Cat #MBS1200018) (European Hornbeam, UniProt P38949 2-160)
T5 construct: Bought reagent
T5 sequence (looked up): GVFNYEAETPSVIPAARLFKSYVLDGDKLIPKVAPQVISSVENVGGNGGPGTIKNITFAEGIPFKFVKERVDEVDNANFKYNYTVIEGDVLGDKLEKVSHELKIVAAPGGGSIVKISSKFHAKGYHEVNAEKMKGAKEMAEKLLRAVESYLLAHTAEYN

T6: European Hornbeam (Car b 1 isoform 2, MyBiosource, Cat #MBS1043940) (European Hornbeam, UniProt P38950 2-160, limits assumed)
T6 construct: Bought reagent
T6 sequence (looked up): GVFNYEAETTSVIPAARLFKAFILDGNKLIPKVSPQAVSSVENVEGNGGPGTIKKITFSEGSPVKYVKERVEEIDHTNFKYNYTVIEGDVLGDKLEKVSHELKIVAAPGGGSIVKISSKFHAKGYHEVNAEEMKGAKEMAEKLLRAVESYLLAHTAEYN


Experiments:
[1] = biological target: T1, natural Bet v 1 (Indoor, Cat #NA-BV1-1); test: SPR Biacore, mAb captured on anti-hFc, 37C;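 further: purified anti-Bet v 1 monoclonal antibodies, HBS-ET running buffer pH 7.4, rate constants from 1:1 model fit with mass transport limitation, KD and t½ calculated from kinetic constants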
[2] = biological target: T1, natural Bet v 1 (Indoor, Cat #NA-BV1-1); test: SPR Biacore, mAb captured on anti-hFc, 25C;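 further: rate constants from sensorgrams fitted to a 1:1 model with mass transport limitation, KD and t½ derived from kinetic constants, run in HBS-ET buffer at pH 7.4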
[3] = biological target: T2, Alder (Aln g 1, MyBiosource, Cat …); test: SPR Biacore, 25C;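 further: binding of related allergens to purified monoclonal anti-Bet v 1 antibodies by surface plasmon resonance in HEPES-buffered saline pH 7.4, kinetics fitted to a 1:1 model with mass transport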
Method: (§1) Equilibrium dissociation constants (KD) for different related allergens binding to purified anti-Bet v 1 monoclonal antibodies were determined using a real-time surface plasmon resonance biosensor (SPR-Biacore) on a Biacore 4000 instrument. All binding studies were performed in 10 mM HEPES, 150 mM NaCl, 3 mM EDTA, and 0.05% v/v surfactant Tween-20, pH 7.4 (HBS-ET) running buffer at 25° C. […] Binding studies were performed on the following related allergens: Alder (Aln g 1, MyBiosource, Cat #MBS1041484), Apple (Mal d 1, MyBiosource, Cat #MBS1224919), Carrot (Dau c 1.2, MyBiosource, Cat #MBS1212920), Celery (Api g 1, MyBiosource, Cat #MBS1171376), Celery (Api g 2, MyBiosource, Cat #MBS1047880), European Hornbeam (Car b 1 isoform 1A & 1B, MyBiosource, Cat #MBS1200018), European Hornbeam (Car b 1 isoform 2, MyBiosource, Cat #MBS1043940), Hazel (Cor A 1, MyBiosource, Cat #MBS5304600), and White Oak (Que a 1, MyBiosource, Cat #MBS1258822). […] Association (kₐ) and dissociation (kd) rate constants were determined by fitting the real-time binding sensorgrams to a 1:1 binding model with mass transport limitation using Scrubber 2.0c curve-fitting software. Binding dissociation equilibrium constants (KD) and dissociative half-lives (t½) were calculated from the kinetic rate constants as:

[4] = biological target: T3, Apple (Mal d 1, MyBiosource, Cat …); test: SPR Biacore, 25C;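 further: binding of related allergens to purified monoclonal anti-Bet v 1 antibodies by surface plasmon resonance in HEPES-buffered saline pH 7.4, kinetics fitted to a 1:1 model with mass transport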
Method: as §1

[5] = biological target: T4, Celery (Api g 1, MyBiosource, Cat …); test: SPR Biacore, 25C;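 further: binding of related allergens to purified monoclonal anti-Bet v 1 antibodies by surface plasmon resonance in HEPES-buffered saline pH 7.4, kinetics fitted to a 1:1 model with mass transport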
Method: as §1

[6] = biological target: T5, European Hornbeam (Car b 1 isoform 1A & …); test: SPR Biacore, 25C;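 further: binding of related allergens to purified monoclonal anti-Bet v 1 antibodies by surface plasmon resonance in HEPES-buffered saline pH 7.4, kinetics fitted to a 1:1 model with mass transport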
Method: as §1

[7] = biological target: T6, European Hornbeam (Car b 1 isoform 2, …); test: SPR Biacore, 25C
Method: as §1

Binder	100 nM natural Bet v 1 Bound (RU) [1] [RU]	Kd [1] [nM]	koff [1] [s⁻¹]	kon [1] [M⁻¹ s⁻¹]	t½ [1] [min]	100 nM natural Bet v 1 Bound (RU) [2] [RU]	Kd [2] [nM]	koff [2] [s⁻¹]	kon [2] [M⁻¹ s⁻¹]	t½ [2] [min]	binding result [3]	binding result [4]	binding result [5]	binding result [6]	binding result [7]
H4H16991P (antibody, human IgG4, V domains shown) VH: QVQLVQSGAEVRKPGASVKVSCKASGYTFTGYYLHWVRQAPGQGLEWMGLINPNTGGTNFAQKFQGRVTMTRDSSISAAYMELSRLRSDDTAVYYCARQHWNRYFDNWGQGTLVTVSS VL: DIQMTQSPSTLSASVGDRVTITCRASQSVGNWLAWYQQKPGKAPKLLIQEASSIESGVPSRFSGSGSGTEFTLIVSSLQPDDFATYYCQQYNSYSWTFGHGTKVEIK	66	2.16	0.00108	500000	11	57	1.06	0.000312	295000	37	no binding (tested: 100 nM)	no binding (tested: 100 nM)	no binding (tested: 100 nM)	no binding (tested: 100 nM)	
H4H16960P (antibody, human IgG4, V domains shown) VH: QLQLQESGPGLVRPSETLSLTCTVSGGSISSSNYWWGWIRQPPGKGLEWIGSIYYSGITYYNPSLKSRVTISADTSKDQFSLKLRSVTAADTAVYYCAKLEWLRLDFWGQGTTVTVSS VL: DIQMTQSPSSVSASVGDRVTITCRASQGISSWLVWYQQKPGKVPKLLIYAASSLQSGVPLRFSGSGSGTDFTLTISSLQPEDFATYYCQQAKSFPLTFGQGTRLEIK	65	2.54	0.00168	662000	6.8	57	1.64	0.00069	422000	17		no binding (tested: 100 nM)	no binding (tested: 100 nM)	no binding (tested: 100 nM)	no binding (tested: 100 nM)

Further lines, results first:

100 nM natural Bet v 1 Bound (RU) [1] [RU]	Kd [1] [nM]	koff [1] [s⁻¹]	kon [1] [M⁻¹ s⁻¹]	t½ [1] [min]	100 nM natural Bet v 1 Bound (RU) [2] [RU]	Kd [2] [nM]	koff [2] [s⁻¹]	kon [2] [M⁻¹ s⁻¹]	t½ [2] [min]	binding result [3]	binding result [4]	binding result [5]	binding result [6]	binding result [7]	Binder
90	1.86	0.000441	237000	26	69	1.22	0.000149	122000	78	no binding (tested: 100 nM)	no binding (tested: 100 nM)	no binding (tested: 100 nM)	no binding (tested: 100 nM)	no binding (tested: 100 nM)	H4H17045P2 (antibody, human IgG4, V domains shown) VH: EVQLVESGGGLVQPGVSLRLSCVASGFTFSNYDITWIRQIPGKGLEWVSRISGSGGSTYFADSVKGRFIISRDNSKNTVYMQMNSLRAEDSAVYYCARRDSVLFSMNSWLDPWGQGTLVTVSS VL: not shown
80	5.48	0.00147	268000	7.9	58	3.56	0.000402	113000	29	no binding (tested: 100 nM)	no binding (tested: 100 nM)	no binding (tested: 100 nM)	no binding (tested: 100 nM)	no binding (tested: 100 nM)	H4H17067P2 (antibody, human IgG4, V domains shown) VH: EVQLVQSGAEVKKPGESLKISCSGSGYRFTNYWIAWVRQMPGKGLEWMGLIHPDDSDIRYSPSFQGQVTFSVDKSINTAYLQWSSLKASDTAMYYCTRQDGILWSHNAWFDPWGQGTLVTVSS VL: not shown
84	2.7	0.000792	293000	15	68	1.34	0.000246	184000	47	no binding (tested: 100 nM)	no binding (tested: 100 nM)	no binding (tested: 100 nM)	no binding (tested: 100 nM)	no binding (tested: 100 nM)	H4H17015P (antibody, human IgG4, V domains shown) VH: QVQLQESGPGLVKPSQTLSLTCTVSGGSISSADHYWSWIRQQPGKGLEWIGYISYRGTTYYNPTLESRVSISVDTFKNQFSLMLHSVTVADTAVYYCAKVLQGLVRFRDYGFDVWGQGTTVTVSS VL: DIQLTQSPPFLSASVGDRVTITCWASQDISSYLAWYQQNPGKSPKLLIYDAFTLHTGVPSRFSGSGSGTEFTLTISSLQPEDFATFYCQHLYSFPFTFGPGTKVDIK
76	8.57	0.00121	141000	10	58	5.23	0.000503	96100	23		no binding (tested: 100 nM)	no binding (tested: 100 nM)	no binding (tested: 100 nM)	no binding (tested: 100 nM)	H4H16950P (antibody, human IgG4, V domains shown) VH: QVQLVQSGAEVKKPGASVKVSCKTSGYTFTNYGITWVRQAPGQGLEWMGWISAYNGNTNYAQNVQGRVTMTTDTSTSTAYMEVRSLRSDDTAVYYCARRSSMLHFQHWGQGTLVTVSS VL: DIVMTQSPDSLAVSLGERATINCKSSQHVLYDSSNENYLAWFQQKPGQPPKLLIYWASTRESGVPDRFSGSGSGTDFTLTISSLQAEDVAVYYCQQYSSAPYTFGQGTKLEIK
